Each block holds one binder with its values, some of them ahead of it. Bridges are numbered along the chain shown (N, C = ends). Primed or numbered codes have the meaning given here. Where no end group is shown, it is not given here. Side-chain parts run from the residue outwards. [ ]: non-standard residue; d: D form. The star is where a group is joined. S5′ = (S)-2-(4'-pentenyl)alanine, olefinic stapling residue closed by ring-closing metathesis; NMeQ′ = N-methylglutamine (N-alpha-methyl, stereo named both D and L in the filing); PEG4″ = PEG4 (tetraethylene glycol) spacer; 2Nal = N[C@@H](Cc1ccc2ccccc2c1)C(=O)O; d2Nal = N[C@H](Cc1ccc2ccccc2c1)C(=O)O; NMeH = CN[C@@H](Cc1c[nH]cn1)C(=O)O; NMeR = CN[C@@H](CCCNC(=N)N)C(=O)O; Palmitoyl = CCCCCCCCCCCCCCCC(=O)*; hArg = N=C(N)NCCCC[C@H](N)C(=O)O; tBuAla = CC(C)(C)C[C@H](N)C(=O)O; NMeQ = CN[C@@H](CCC(N)=O)C(=O)O; Cha = N[C@@H](CC1CCCCC1)C(=O)O; Cit = NC(=O)NCCC[C@H](N)C(=O)O; Cba = N[C@@H](CC1CCC1)C(=O)O; S5 = C=CCCC[C@](C)(N)C(=O)O; Nle = CCCC[C@H](N)C(=O)O
Target: T1, β-catenin (UniProt P35222 1-781, limits assumed)
T1 construct: also called beta-catenin
T1 sequence (looked up): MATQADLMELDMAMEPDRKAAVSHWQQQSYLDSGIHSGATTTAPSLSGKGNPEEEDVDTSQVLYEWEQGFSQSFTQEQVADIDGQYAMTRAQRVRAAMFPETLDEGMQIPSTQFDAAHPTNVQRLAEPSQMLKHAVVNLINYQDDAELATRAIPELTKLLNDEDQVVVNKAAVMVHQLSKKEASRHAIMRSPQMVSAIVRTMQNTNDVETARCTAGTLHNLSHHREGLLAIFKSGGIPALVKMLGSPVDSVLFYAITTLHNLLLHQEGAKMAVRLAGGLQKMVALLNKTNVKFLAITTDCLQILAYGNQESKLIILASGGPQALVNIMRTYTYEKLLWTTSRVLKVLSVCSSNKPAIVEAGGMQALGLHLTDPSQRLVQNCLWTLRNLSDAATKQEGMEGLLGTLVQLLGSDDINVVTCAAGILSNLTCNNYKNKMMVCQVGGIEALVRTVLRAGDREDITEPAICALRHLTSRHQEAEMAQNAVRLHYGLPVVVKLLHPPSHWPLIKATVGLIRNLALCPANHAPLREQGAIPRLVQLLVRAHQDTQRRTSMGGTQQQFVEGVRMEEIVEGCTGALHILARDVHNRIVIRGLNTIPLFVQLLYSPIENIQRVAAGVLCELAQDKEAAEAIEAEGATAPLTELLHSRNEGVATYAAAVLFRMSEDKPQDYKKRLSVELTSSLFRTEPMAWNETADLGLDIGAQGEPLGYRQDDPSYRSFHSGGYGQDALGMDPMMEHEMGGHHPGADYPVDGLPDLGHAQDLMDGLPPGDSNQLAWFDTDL
Assay: ALPHA Screen (BCL9/β-catenin);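 also: bead proximity readout with the polypeptide linked to donor beads and β-catenin fixed on acceptor beads, their binding bringing the beads close enough to emit signal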

B1: SEQ ID NO: 215 (peptide)
peptide: Ac-[NMeH]RQRSLQTLR[S5]IQR[S5][Cha][2Nal]-NH2
modifications: staple 11-15
SMILES: CC[C@H](C)[C@@H]1NC(=O)[C@@](C)(NC(=O)[C@H](CCCNC(=N)N)NC(=O)[C@H](CC(C)C)NC(=O)[C@@H](NC(=O)[C@H](CCC(N)=O)NC(=O)[C@H](CC(C)C)NC(=O)[C@H](CO)NC(=O)[C@H](CCCNC(=N)N)NC(=O)[C@H](CCC(N)=O)NC(=O)[C@H](CCCNC(=N)N)NC(=O)[C@H](Cc2c[nH]cn2)N(C)C(C)=O)[C@@H](C)O)CCCC=CCCC[C@@](C)(C(=O)N[C@@H](CC2CCCCC2)C(=O)N[C@@H](Cc2ccc3ccccc3c2)C(N)=O)NC(=O)[C@H](CCCNC(=N)N)NC(=O)[C@H](CCC(N)=O)NC1=O
IC50: 9520 nM

B2: SEQ ID NO: 190 (peptide)
peptide: Ac-HRQRSLQTLR[S5]IQ[NMeR][S5][Cha][2Nal]-NH2
modifications: staple 11-15
SMILES: CC[C@H](C)[C@@H]1NC(=O)[C@@](C)(NC(=O)[C@H](CCCNC(=N)N)NC(=O)[C@H](CC(C)C)NC(=O)[C@@H](NC(=O)[C@H](CCC(N)=O)NC(=O)[C@H](CC(C)C)NC(=O)[C@H](CO)NC(=O)[C@H](CCCNC(=N)N)NC(=O)[C@H](CCC(N)=O)NC(=O)[C@H](CCCNC(=N)N)NC(=O)[C@H](Cc2c[nH]cn2)NC(C)=O)[C@@H](C)O)CCCC=CCCC[C@@](C)(C(=O)N[C@@H](CC2CCCCC2)C(=O)N[C@@H](Cc2ccc3ccccc3c2)C(N)=O)NC(=O)[C@H](CCCNC(=N)N)N(C)C(=O)[C@H](CCC(N)=O)NC1=O
IC50: 271 nM

B5: SEQ ID NO: 222 (peptide)
peptide: Ac-H[hArg]QRSLQTLR[S5]IQ[Cit][S5][Cha][2Nal]-NH2
modifications: staple 11-15
SMILES: CC[C@H](C)[C@@H]1NC(=O)[C@@](C)(NC(=O)[C@H](CCCNC(=N)N)NC(=O)[C@H](CC(C)C)NC(=O)[C@@H](NC(=O)[C@H](CCC(N)=O)NC(=O)[C@H](CC(C)C)NC(=O)[C@H](CO)NC(=O)[C@H](CCCNC(=N)N)NC(=O)[C@H](CCC(N)=O)NC(=O)[C@H](CCCCNC(=N)N)NC(=O)[C@H](Cc2c[nH]cn2)NC(C)=O)[C@@H](C)O)CCCC=CCCC[C@@](C)(C(=O)N[C@@H](CC2CCCCC2)C(=O)N[C@@H](Cc2ccc3ccccc3c2)C(N)=O)NC(=O)[C@H](CCCNC(N)=O)NC(=O)[C@H](CCC(N)=O)NC1=O
IC50: 742 nM

B8: SEQ ID NO: 223 (peptide)
peptide: HRQRSLQTLXXIQRXAA
modifications: H(homoArg)QRSLQTL(Cit)XIQRX(Cha)(2-Nal); X/X stapled, (S) α-methyl; N-terminal Ac; C-terminal NH2
IC50: 573 nM

B9: SEQ ID NO: 158 (peptide)
peptide: Ac-H[NMeR]QRSLQTLR[S5]IQR[S5][Cba][2Nal]-NH2
modifications: staple 11-15; not fully specified; printed as H(R-Me)QRSLQTLRXIQRX(CBA)(2-Nal), X/X stapled, (S) α-methyl, N-terminal Ac, C-terminal NH2
IC50: 383 nM

B10: SEQ ID NO: 189 (peptide)
peptide: Ac-HRQRSLQTL[NMeR][S5]IQR[S5][Cha][2Nal]-NH2
modifications: staple 11-15
SMILES: CC[C@H](C)[C@@H]1NC(=O)[C@@](C)(NC(=O)[C@H](CCCNC(=N)N)N(C)C(=O)[C@H](CC(C)C)NC(=O)[C@@H](NC(=O)[C@H](CCC(N)=O)NC(=O)[C@H](CC(C)C)NC(=O)[C@H](CO)NC(=O)[C@H](CCCNC(=N)N)NC(=O)[C@H](CCC(N)=O)NC(=O)[C@H](CCCNC(=N)N)NC(=O)[C@H](Cc2c[nH]cn2)NC(C)=O)[C@@H](C)O)CCCC=CCCC[C@@](C)(C(=O)N[C@@H](CC2CCCCC2)C(=O)N[C@@H](Cc2ccc3ccccc3c2)C(N)=O)NC(=O)[C@H](CCCNC(=N)N)NC(=O)[C@H](CCC(N)=O)NC1=O
IC50: 247 nM

B12: SEQ ID NO: 155 (peptide)
peptide: Ac-HR[NMeQ]RSL[NMeQ]TLR[S5]IQR[S5][Cba][2Nal]-NH2
modifications: staple 11-15
IC50: 281 nM

B13: SEQ ID NO: 7 (peptide)
peptide: Ac-EHRERSLQTLR[S5]IQR[S5]L[2Nal]-NH2
modifications: staple 12-16; not fully specified; printed as EHRERSLQTLRXIQRXL(2-Nal)
IC50: 810 nM

B14: SEQ ID NO: 12 (peptide)
peptide: Ac-EHQERSLQTLR[S5]IQR[S5]L[2Nal]-NH2
modifications: staple 12-16; not fully specified; printed as EHQERSLQTLRXIQRXL(2-Nal)
IC50: 4160 nM

B17: SEQ ID NO: 188 (peptide)
peptide: Ac-HRQRSLQTLR[S5]IQR[S5][Cha][d2Nal]-NH2
modifications: staple 11-15
SMILES: CC[C@H](C)[C@@H]1NC(=O)[C@@](C)(NC(=O)[C@H](CCCNC(=N)N)NC(=O)[C@H](CC(C)C)NC(=O)[C@@H](NC(=O)[C@H](CCC(N)=O)NC(=O)[C@H](CC(C)C)NC(=O)[C@H](CO)NC(=O)[C@H](CCCNC(=N)N)NC(=O)[C@H](CCC(N)=O)NC(=O)[C@H](CCCNC(=N)N)NC(=O)[C@H](Cc2c[nH]cn2)NC(C)=O)[C@@H](C)O)CCCC=CCCC[C@@](C)(C(=O)N[C@@H](CC2CCCCC2)C(=O)N[C@H](Cc2ccc3ccccc3c2)C(N)=O)NC(=O)[C@H](CCCNC(=N)N)NC(=O)[C@H](CCC(N)=O)NC1=O
IC50: 387 nM

B18: SEQ ID NO: 161 (peptide)
peptide: Ac-HRQRSLQTLR[S5]IQR[S5][Cba][2Nal]K([PEG4″-Palmitoyl])-NH2
modifications: staple 11-15
IC50: 791 nM

B19: SEQ ID NO: 207 (peptide)
peptide: {Palmitoyl-PEG4″}-HR[NMeQ′]RSL[NMeQ′]TLR[S5]IQR[S5][Cha][2Nal]-NH2
modifications: staple 11-15; not fully specified
IC50: 354 nM

B20: SEQ ID NO: 56 (peptide)
peptide: LQTLR[Nle]IQR[Nle]L[2Nal]P
IC50: 10100 nM

Results, then the binder that gave them:

IC50: 1480 nM
B3: SEQ ID NO: 164 (peptide)
peptide: HRQRSLQTLR[S5]IQ[NMeR][S5][Cba][2Nal]
modifications: staple 11-15; not fully specified (residues 3, 7, N-terminus, C-terminus); printed as HR(N-methylQ)RSL(N-methylQ)TLRXIQ(N-methylR)X(CBA)(2-Nal), X/X stapled, (S) α-methyl, N-terminal Ac, C-terminal NH2

IC50: 30300 nM
B4: SEQ ID NO: 55 (peptide)
peptide: LQTLRDIQRML[2Nal]P

IC50: 361 nM
B6: SEQ ID NO: 160 (peptide)
peptide: {Palmitoyl-PEG4″}-HRQRSLQTLR[S5]IQR[S5][Cba][2Nal]-NH2
modifications: staple 11-15

IC50: 466 nM
B7: SEQ ID NO: 213 (peptide)
peptide: {Palmitoyl-PEG4″}-L[NMeQ′]TLR[S5]IQR[S5][Cba][2Nal]-NH2
modifications: staple 6-10; also: Q2 N-methyl: stated both D and L

IC50: 322 nM
B11: SEQ ID NO: 191 (peptide)
peptide: Ac-HRQRSLQTLR[S5]IQR[S5][tBuAla][2Nal]-NH2
modifications: staple 11-15
SMILES: CC[C@H](C)[C@@H]1NC(=O)[C@@](C)(NC(=O)[C@H](CCCNC(=N)N)NC(=O)[C@H](CC(C)C)NC(=O)[C@@H](NC(=O)[C@H](CCC(N)=O)NC(=O)[C@H](CC(C)C)NC(=O)[C@H](CO)NC(=O)[C@H](CCCNC(=N)N)NC(=O)[C@H](CCC(N)=O)NC(=O)[C@H](CCCNC(=N)N)NC(=O)[C@H](Cc2c[nH]cn2)NC(C)=O)[C@@H](C)O)CCCC=CCCC[C@@](C)(C(=O)N[C@@H](CC(C)(C)C)C(=O)N[C@@H](Cc2ccc3ccccc3c2)C(N)=O)NC(=O)[C@H](CCCNC(=N)N)NC(=O)[C@H](CCC(N)=O)NC1=O

IC50: 1500 nM
B15: SEQ ID NO: 9 (peptide)
peptide: Ac-EHRERSLQTLR[S5′]IQR[S5′][Cba][2Nal]-NH2
modifications: staple 12-16; not fully specified; printed as EHRERSLQTLRXIQRX(CBA)(2-Nal)

IC50: 323 nM
B16: SEQ ID NO: 193 (peptide)
peptide: Ac-HR[NMeQ]RSLQTLR[S5]IQR[S5][tBuAla][2Nal]-NH2
modifications: staple 11-15; also: N-methylglutamine 3: D or L (filing names both)

IC50: 195 nM
B21: SEQ ID NO: 184 (peptide)
peptide: Ac-HRQ[NMeR]SLQTLR[S5]IQR[S5][Cha][2Nal]-NH2
modifications: staple 11-15
SMILES: CC[C@H](C)[C@@H]1NC(=O)[C@@](C)(NC(=O)[C@H](CCCNC(=N)N)NC(=O)[C@H](CC(C)C)NC(=O)[C@@H](NC(=O)[C@H](CCC(N)=O)NC(=O)[C@H](CC(C)C)NC(=O)[C@H](CO)NC(=O)[C@H](CCCNC(=N)N)N(C)C(=O)[C@H](CCC(N)=O)NC(=O)[C@H](CCCNC(=N)N)NC(=O)[C@H](Cc2c[nH]cn2)NC(C)=O)[C@@H](C)O)CCCC=CCCC[C@@](C)(C(=O)N[C@@H](CC2CCCCC2)C(=O)N[C@@H](Cc2ccc3ccccc3c2)C(N)=O)NC(=O)[C@H](CCCNC(=N)N)NC(=O)[C@H](CCC(N)=O)NC1=O

Source: patent publication US20200262867A1 (WNTRX PHARMACEUTICALS, published 2020)
